Data from the supplement of paper PMC9170038.

Test system: K4 kissing-loop RNA reporter
Test: apparent KD of K4 kissing-loop reporter; higher = weaker reporter binding
Conditions: Eterna round: R107
Description: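 RNA-MaP round R107: designed RNA switches with theophylline, tryptophan, arginine or FMN aptamers are transcribed on-chip within common flanks. They are titrated with a labelled K4 kissing-loop RNA reporter in RNA-MaP buffer (100 mM Tris pH 7.5, 80 mM KCl, 4 mM MgCl2), without ligand or with the indicated ligand. Median apparent KD per design.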

[1] = input ligand: theophylline 20 uM
[2] = input ligand: tryptophan 2.4 mM
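Note: bound reporter read as fluorescence of individual clusters on recovered sequencing chips by microscopy, with normalized cluster intensities fitted with a binding model.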

Sequence | apparent KD of K4 kissing-loop reporter (input ligand: FMN 200 uM) | apparent KD of K4 kissing-loop reporter (input ligand: arginine 13.2 mM) | apparent KD of K4 kissing-loop reporter (input ligand: none) | apparent KD of K4 kissing-loop reporter [1] | apparent KD of K4 kissing-loop reporter [2]
ACGCGCGAGACGGCCGCCACUAUACGUCGAGUGAUGUUCGAGCCAAGAUGUCGUUACGUUUAUAAUAGGACCGGGUCAAUGGAUU [theeternabot_sameState_KL_Trp_B_19] | 0.596 µM | 0.512 µM | 0.583 µM | 0.661 µM | 0.513 µM
ACGGAUACGCGAGAUACCAGAGGCAUUCGCCAGCGACCAUAAUGUCCCGAGAGUGAUGUUCUCCCUUGGCAGCUCAUGGUUAAUU [theeternabot_exclusion_KL_Theo_B_2] | 0.484 µM | 0.4 µM | 0.468 µM | 0.57 µM | 0.385 µM
ACGUCUCGUAAACUCGUGGUUUCGAUCGAUACCAGUAGCGAGAGUUACCCUUGGCAGCGACAUGAGUGAUGUUCAUGUACGAAGA [KL-XTheoA2] | 0.0993 µM | 0.0885 µM | 0.0931 µM | 0.0898 µM | 0.0903 µM
ACGUGCACCAGUGAUGUUGGAAAAUAUGAAGGAGCGGGAGAAAACCCAGGUAGGUCGCAUAAUUGCACGAGCCACGAAAGUGGCA [#15 K4 Arginine A Same State] | 0.0734 µM | 0.0937 µM | 0.0883 µM | 0.145 µM | 0.0708 µM
ACGUGUCACUGAAGGAGCGUCUACCGAAUACGAGUGAUGUUCGUACACCACUGAUAUAGUGGACAGGUAGGUCGCAGUGAUACGU [Arg B Ex t3] | 0.12 µM | 0.101 µM | 0.122 µM | 0.102 µM | 0.107 µM
ACUAUCCGUAUAUAUAAGAUAGCUGGAGAUACCAGUUCAAUCUUGAACCCUUGGCAGCUCACCACCAAGUGAUGUUUGGCACGAC [theeternabot_sameState_KL_Theo_A_42] | 0.326 µM | 0.241 µM | 0.326 µM | 0.292 µM | 0.273 µM
ACUGUACCGGGAAGGAGCGUGAAUGAGAAUGGAUAUAGUGAUGUUAUGUAUACGAACGAAUCGCAGGUAGGUCGCCCGGAUCCCU [SSArgB.aC] | 0.617 µM | 0.322 µM | 0.399 µM | 0.851 µM | 0.553 µM
AGAACUGUCUGAGAUACCAGCUAAGGAGUGAUGUUCCUAGGUCCACGAAAGUGGACCCAUAGCCCUUGGCAGCUCAGACAGUUCA [#23 K4 Theophylline B Same State] | 1.28 µM | 0.833 µM | 1.37 µM | 0.674 µM | 1.16 µM
AGAACUGUCUGGGAUACCAGCCGAGGAGUGAUGUUCCGGCUCGACGAAACGUCGAGCUACGGCCCUUGGCAGCUCAGACAGUUCA [#22 K4 Theophylline B Same State] | 1.99 µM | 0.639 µM | 1.17 µM | 0.735 µM | 0.34 µM
AGAACUGUCUUGGAUACCAGUGAUGUUGGUAUCUAUGUGUGAGUGCAAAGCGUCCCACAUUGCCCUUGGCAGCUAAGACUGUUCA [Omei KL Theo B Exc A v2] | 0.154 µM | 0.132 µM | 0.146 µM | 0.216 µM | 0.145 µM
AGAAGGAGACUUGCAACGACUCCUUCAGACUAGGAUAUCAGGAAACUGAGAAGGAGUCUACUUGCAGUGAUGUUGCAAGAAUAAU [[F]''-[K]'-[F]'-[F1]-[F2]-[K1]-[K2]_Design3] | 0.129 µM | 0.147 µM | 0.13 µM | 0.135 µM | 0.125 µM
AGACCUCAGUGAUGUUGAGGUAACACUGAUACCAGCGACUUAAUUCGCCCUUGGCAGCAGUCCACCGAGGUAUCUGAUUAGGUCA [#24 K4 Theophylline A Exclusion] | 0.171 µM | 0.173 µM | 0.179 µM | 0.273 µM | 0.155 µM
AGACUACUGACAGGAUAUAACAUCCUGGUCGUAUACCGAAAGGUAUACGAUUUCCUUCUAGUGAUGUUAGAAGGGUCGGUAGUCA [Omei KL FMN B Exc B v14] | 0.103 µM | 0.078 µM | 0.0907 µM | 0.0703 µM | 0.0829 µM
AGACUACUGAUAGGAUAUAACAUACUACCUCGUAUACCAAAGGUAUACGAGGCCCUUCUAGUGAUGUUAGAAGGGUCGGUAGUCA [Omei KL FMN B Exc B v5] | 0.0935 µM | 0.0764 µM | 0.0795 µM | 0.0812 µM | 0.0832 µM
AGAGAUAUAUGAGGAUAUGAGAUAGUUAAUGAGUGAGUUUUAGUGUUGUUUGGUUAGUGAUGUUAUUUAGAAGGCGUGAGUGAUG [grrfullin] | 0.0977 µM | 0.0665 µM | 0.0702 µM | 0.08 µM | 0.0657 µM
AGAGUACGAAAGUACUCCUCUACACACUGACGAGGACCGGUACGGCCGCCACUCGAGUUGAGUGAUGUUCGAUAGUGUGUAGAGA [Omei KL Tryp A SS C v3] | 0.213 µM | 0.0384 µM | 0.097 µM | 0.312 µM | 1.12 µM
